Test results published in patent US20030199671A1 (published 2003).
Each block holds one binder with its values, some of them ahead of it. Starred links: 1 amine or outer side, 2 acyl side, 3 side chain; linkers in the order of their positions; H or OH if unused. Primed or numbered codes have the meaning given here. code X(3) = -NH-(CH2CH2O)2-CH2CH2- (from -X-NH2 = -NH-(CH2CH2O)2-CH2CH2-NH2), C(COCCOCC[*:2])N[*:1]; code Z = not defined here; Su = not defined here

Experiments:
human IgG3 [1] = target: T1, human IgG3 (human, UniProt P01860-1 1-377); experiment: anisotropy; pH 4.0 + salt
T1 construct: Calbiochem; plasma IgG3 in anisotropy studies, myeloma-derived (cat. 400124) in batch/column studies; also called hIgG3
T1 sequence (P01860 other isoform, or with tags, fused parts or gaps): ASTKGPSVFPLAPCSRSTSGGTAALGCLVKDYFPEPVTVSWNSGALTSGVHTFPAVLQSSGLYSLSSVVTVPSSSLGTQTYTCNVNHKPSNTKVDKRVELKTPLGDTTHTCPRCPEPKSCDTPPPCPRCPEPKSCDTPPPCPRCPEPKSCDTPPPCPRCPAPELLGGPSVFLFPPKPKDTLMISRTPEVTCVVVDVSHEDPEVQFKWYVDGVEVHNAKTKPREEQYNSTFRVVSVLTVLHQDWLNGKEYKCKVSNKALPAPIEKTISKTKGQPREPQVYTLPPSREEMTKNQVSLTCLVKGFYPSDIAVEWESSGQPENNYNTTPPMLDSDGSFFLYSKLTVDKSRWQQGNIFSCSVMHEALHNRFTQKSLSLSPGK

human IgG4 [2] = target: T2, human IgG4 (human, UniProt P01861-1 1-327 = IgG part); experiment: anisotropy; pH 4.0 - salt
T2 construct: Calbiochem; plasma IgG4 in anisotropy studies, myeloma-derived (cat. 400126) in batch/column studies; also called hIgG4
T2 sequence (P01861 other isoform, or with tags, fused parts or gaps): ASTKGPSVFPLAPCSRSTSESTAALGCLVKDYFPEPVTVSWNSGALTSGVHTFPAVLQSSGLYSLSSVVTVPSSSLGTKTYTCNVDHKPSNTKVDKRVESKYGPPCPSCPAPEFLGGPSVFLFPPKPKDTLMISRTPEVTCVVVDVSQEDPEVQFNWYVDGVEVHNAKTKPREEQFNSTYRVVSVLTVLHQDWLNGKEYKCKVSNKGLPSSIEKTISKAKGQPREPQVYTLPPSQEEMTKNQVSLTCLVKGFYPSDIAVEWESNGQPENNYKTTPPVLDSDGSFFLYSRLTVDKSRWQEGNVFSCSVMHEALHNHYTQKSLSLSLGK

human IgG1 [3] = target: T3, human IgG1 (human, UniProt P01857-1 1-330 = IgG part); experiment: anisotropy; pH 4.0 - salt
T3 construct: Calbiochem; human plasma IgG1 in anisotropy studies, myeloma-derived (cat. 400120) in batch/column studies; also called hIgG1
T3 sequence (P01857 other isoform, or with tags, fused parts or gaps): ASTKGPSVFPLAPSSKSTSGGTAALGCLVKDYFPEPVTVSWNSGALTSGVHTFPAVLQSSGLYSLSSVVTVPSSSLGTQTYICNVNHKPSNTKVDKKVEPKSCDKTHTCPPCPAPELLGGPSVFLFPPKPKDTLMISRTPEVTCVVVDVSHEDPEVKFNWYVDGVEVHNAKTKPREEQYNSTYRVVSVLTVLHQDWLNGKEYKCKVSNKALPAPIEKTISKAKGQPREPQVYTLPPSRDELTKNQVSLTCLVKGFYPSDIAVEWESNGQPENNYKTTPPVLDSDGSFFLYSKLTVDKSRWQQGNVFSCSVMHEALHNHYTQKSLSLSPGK

human IgG3 [4] = target: T1, human IgG3; experiment: anisotropy; pH 4.0 - salt
human IgG2 [5] = target: T4, human IgG2 (human, UniProt P01859-1 1-326 = IgG part); experiment: anisotropy; pH 4.0 - salt
T4 construct: Calbiochem; plasma IgG2 in anisotropy studies, myeloma-derived (cat. 400122) in batch/column studies; also called hIgG2
T4 sequence (P01859 other isoform, or with tags, fused parts or gaps): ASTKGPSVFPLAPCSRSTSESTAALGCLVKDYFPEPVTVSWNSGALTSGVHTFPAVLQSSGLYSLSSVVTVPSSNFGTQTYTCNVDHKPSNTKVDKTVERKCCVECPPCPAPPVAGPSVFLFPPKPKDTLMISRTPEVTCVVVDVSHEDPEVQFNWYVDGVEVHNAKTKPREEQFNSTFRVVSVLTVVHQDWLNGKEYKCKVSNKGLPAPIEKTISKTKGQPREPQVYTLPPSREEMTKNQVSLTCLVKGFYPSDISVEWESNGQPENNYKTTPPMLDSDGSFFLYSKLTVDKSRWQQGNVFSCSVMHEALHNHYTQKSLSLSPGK

human IgG3 [6] = target: T1, human IgG3; experiment: anisotropy; pH 9.5 + salt
human IgG4 [7] = target: T2, human IgG4; experiment: anisotropy; pH 7.5 - salt
human IgG1 [8] = target: T3, human IgG1; experiment: anisotropy; pH 7.5 - salt
human IgG3 [9] = target: T1, human IgG3; experiment: anisotropy; pH 7.5 + salt
[10] = target: T5, human IgG (unfractionated, polyclonal); experiment: filterplate; 25 mg human IgG applied per ml resin
T5 construct: also called hIgG; polyclonal human IgG
Description: After incubation of the samples, with shaking, at room temperature for one hour, the supernatant liquid from each well, containing unbound IgG, was collected by centrifugation into the cognate well of a collection plate. The assay plate was washed three times with PBST (200 μl/wash) and bound IgG was eluted from the media samples by incubation for 30-60 minutes at room temperature in 100 μl Elution Buffer (100 mM CAPS, pH 11.5). Eluates were collected by centrifugation for analysis. Protein concentrations were determined from A₂₈₀ measurements and plotted as a function of mg human IgG bound per ml resin vs. mg human IgG applied per ml resin.
These were subsequently tested in batch filterplate format for relative static capacity, human IgG subtype and species specificity as previously described. In addition, total dynamic capacities were determined for comparison. […] The static capacity (mg IgG bound per ml resin) was measured at the 2.5 mg/ml target concentration (25 mg human IgG applied per ml resin).

human IgG4 [11] = target: T2, human IgG4; experiment: batch binding, immobilised ligand
Description: (§1) IgG targets were diluted into 10 mM phosphate buffer containing 150 mM NaCl and 0.01% Tween 20, pH 7.2 (PBST) or 50 mM Tris buffer containing, 150 mM NaCl and 0.01% Tween-20, pH 7.5 (TBST). Batch (static) binding and elution studies were conducted in a 96-well assay filterplate (Millipore MultiScreen-HV, with 0.45 μm Durapore membrane, product no. MAHVN4510). The target was allowed to incubate with the resin for 1-1.5 hours with shaking at room temperature. Unbound target was collected by centrifugation of samples from the assay plate directly into a low-UV absorbing 96-well collection plate (Costar, product no. 3635 or Greiner, product no. 655801). The unbound target was then quantitated by reading the absorbance at 280 nm (normalized to 1 cm pathlength, 1.4 mg/ml A280 extinction coefficient) of the collection plate on a microplate spectrophotometer (Molecular Devices Corp., SPECTRAmax PLUS) against a buffer blank.
(§2) The percentage bound target was determined by subtracting the mass determined as unbound from the corresponding condition's control values (control non-filtered added directly to the collection plate and/or the negative control). The assay plate was washed (3×) with 200 μl of binding buffer by vacuum filtration followed by addition of 100 μl of various elution conditions (e.g.: 0.1 M sodium bicarbonate buffer, pH 8.5 and/or 0.1 M sodium citrate buffer, pH 4.0). After a 30-60 minute incubation with shaking at room temperature, the eluted target was collected by centrifugation of the assay plate into another collection plate and quantitated in a similar manner. Percent elution of total load was then determined to characterize elution recovery efficiency under various conditions.

human IgG1 [12] = target: T3, human IgG1; experiment: batch binding, immobilised ligand
Description: as §1, §2

human IgG3 [13] = target: T1, human IgG3; experiment: batch binding, immobilised ligand
Description: as §1, §2

human IgG2 [14] = target: T4, human IgG2; experiment: batch binding, immobilised ligand
Description: as §1, §2

human IgG1 [15] = target: T3, human IgG1; experiment: anisotropy; pH 4.0 + salt
human IgG2 [16] = target: T4, human IgG2; experiment: anisotropy; pH 4.0 + salt
human IgG2 [17] = target: T4, human IgG2; experiment: anisotropy; pH 7.5 - salt
human IgG4 [18] = target: T2, human IgG4; experiment: mini-column chromatography, immobilised ligand
Description: (§3) Thus, 250 μg of target (hIgG1, hIgG2, hIgG3, hIgG4, goat IgG and bovine IgG) at 0.250 mg/ml in PBST, pH 7.2 or TBST, pH 7.3 was loaded onto a 350 μl column (3×50 mm) run at 0.200 ml/min. flowrate (170 cm/hr). Flowthrough, elution and cleaning fractions were collected and assayed for total protein recovery by size-exclusion HPLC.

human IgG1 [19] = target: T3, human IgG1; experiment: mini-column chromatography, immobilised ligand
Description: as §3

human IgG2 [20] = target: T4, human IgG2; experiment: mini-column chromatography, immobilised ligand
Description: as §3

B1: DX398 (peptide)
peptide: Ac-AGAATCSTSYWYYQWFCTDSPGPEGGGK-NH2
modifications: not fully specified (bridges); printed as Ac-AGAATCSTSYWYYQWFCTDSPGPEGGGK-NH2; cysteine pairing not given here
notes: immobilised in batch assays
Kd (human IgG3 [1]): 40 nM | Kd (human IgG4 [2]): 1600 nM | Kd (human IgG1 [3]): 2400 nM | Kd (human IgG3 [4]): 20 nM | Kd (human IgG2 [5]): 1800 nM | Kd (human IgG3 [6]): 300 nM | Kd (human IgG4 [7]): 3500 nM | Kd (human IgG1 [8]): 4600 nM | Kd (human IgG3 [9]): 300 nM

B4: DX413 (peptide)
peptide: Ac-AGYWYCWFPDRPECPLYPGPEGGGK-NH2
modifications: not fully specified (bridges); printed as Ac-AGYWYCWFPDRPECPLYPGPEGGGK-NH2; cysteine pairing not given here
Kd (human IgG3 [1]): 1100 nM | Kd (human IgG3 [4]): 840 nM

B5: DX389 (peptide)
peptide: Ac-AGPHNCDDHYWYCKWFPGPEGGGK-NH2
modifications: not fully specified (bridges); printed as Ac-AGPHNCDDHYWYCKWFPGPEGGGK-NH2; cysteine pairing not given here
notes: immobilised in batch assays
Kd (human IgG3 [1]): 1800 nM | Kd (human IgG3 [4]): 2500 nM

B7: DX392 (peptide)
peptide: Ac-AGSYWCKIWDVCPQSPGPEGGGK-NH2
modifications: not fully specified (bridges); printed as Ac-AGSYWCKIWDVCPQSPGPEGGGK-NH2; cysteine pairing not given here
notes: immobilised in batch assays
Kd (human IgG3 [1]): 600 nM | Kd (human IgG3 [4]): 320 nM

B9: DX907 (peptide)
peptide: Ac-GDDHMCVYTTWGELIWCDNH-{code X(3)-NH2}
modifications: not fully specified (bridges); printed as Ac-GDDHMCVYTTWGELIWCDNH-X-NH2; cysteine pairing not given here
notes: DX249 derivative; immobilised
Static Cap. [10]: 10 mg/mL

B10: DX597 (peptide)
peptide: Ac-GDSWNCAFHHNEMVWCDDGGTPGPEGGGK-NH2
modifications: not fully specified (bridges); printed as Ac-GDSWNCAFHHNEMVWCDDGGTPGPEGGGK-NH2; cysteine pairing not given here
notes: Immobilised on Sepharose
Bound (% of Total Load) (human IgG4 [11]): 71% | Bound (% of Total Load) (human IgG1 [12]): 93% | Bound (% of Total Load) (human IgG3 [13]): 0% | Bound (% of Total Load) (human IgG2 [14]): 90%

B12: DX404 (peptide)
peptide: Ac-AGTYWCTFWELPCDPAPGPEGGGK-NH2
modifications: cysteine pairing not given here
notes: immobilised in batch/column assays
Kd (human IgG1 [15]): 2000 nM | Kd (human IgG2 [16]): 2000 nM | Kd (human IgG1 [3]): 1500 nM | Kd (human IgG2 [5]): 1000 nM | Kd (human IgG1 [8]): 8800 nM | Kd (human IgG2 [17]): 8600 nM

B13: DX253 (peptide)
peptide: Ac-GDRRACSRDWSGALVWCAGHEPGPEGGGK-NH2
modifications: not fully specified (bridges); printed as Ac-GDRRACSRDWSGALVWCAGHEPGPEGGGK-NH2; cysteine pairing not given here
notes: immobilised on Sepharose in batch/column assays
binding efficiency (human IgG4 [18]): > 90% | binding efficiency (human IgG1 [19]): > 90% | binding efficiency (human IgG2 [20]): > 90% | Bound (% of Total Load) (human IgG4 [11]): 60% | bdg % (of Total Load) (human IgG4 [11]): 40% | Bound (% of Total Load) (human IgG1 [12]): 86% | bdg % (of Total Load) (human IgG1 [12]): 56% | Bound (% of Total Load) (human IgG3 [13]): 0% | bdg % (of Total Load) (human IgG3 [13]): 15% | Bound (% of Total Load) (human IgG2 [14]): 81% | bdg % (of Total Load) (human IgG2 [14]): 63%

The next lines start with the values.

Static Cap. [10]: 11 mg/mL
B2: DX909 (peptide)
peptide: Ac-GDDHMCVYTTWGELIWCDNH-{code X(3)-Su-code X(3)-NH2}
modifications: not fully specified (bridges); printed as Ac-GDDHMCVYTTWGELIWCDNH-X-Su-X-NH2; cysteine pairing not given here; reading uncertain
notes: DX249 derivative; immobilised

Bound (% of Total Load) (human IgG4 [11]): 15% | Bound (% of Total Load) (human IgG1 [12]): 31% | Bound (% of Total Load) (human IgG3 [13]): 0% | Bound (% of Total Load) (human IgG2 [14]): 21%
B3: DX1072 (peptide)
peptide: Ac-GDNPMCWRAHWWEDAYCINHEPGPEGGGK-NH2
modifications: not fully specified (bridges); printed as Ac-GDNPMCWRAHWWEDAYCINHEPGPEGGGK-NH2; cysteine pairing not given here
notes: Derivative of DX596 (Lys-Lys to Arg-Ala and adjacent Ser to His); immobilised

Static Cap. [10]: 9 mg/mL
B6: DX911 (peptide)
peptide: Ac-GDDHMCVYTTWGELIWCDNH-{code X(3)-code Z-code X(3)-NH2}
modifications: not fully specified (bridges); printed as Ac-GDDHMCVYTTWGELIWCDNH-X-Z-X-NH2; cysteine pairing not given here; reading uncertain
notes: DX249 derivative; immobilised

Bound (% of Total Load) (human IgG4 [11]): 1% | Bound (% of Total Load) (human IgG1 [12]): 7% | Bound (% of Total Load) (human IgG3 [13]): 0% | Bound (% of Total Load) (human IgG2 [14]): 2%
B8: DX1071 (peptide)
peptide: Ac-GDNPMCWRASWWEDAYCINHEPGPEGGGK-NH2
modifications: not fully specified (bridges); printed as Ac-GDNPMCWRASWWEDAYCINHEPGPEGGGK-NH2; cysteine pairing not given here
notes: Derivative of DX596 (two internal lysines replaced by arginine and alanine); immobilised

Bound (% of Total Load) (human IgG4 [11]): 59% | Bound (% of Total Load) (human IgG1 [12]): 87% | Bound (% of Total Load) (human IgG3 [13]): 0% | Bound (% of Total Load) (human IgG2 [14]): 82%
B11: DX1070 (peptide)
peptide: Ac-GDWGECTVTSYGELIWCGGLEPGPEGGGK-NH2
modifications: not fully specified (bridges); printed as Ac-GDWGECTVTSYGELIWCGGLEPGPEGGGK-NH2; cysteine pairing not given here
notes: Immobilised on Sepharose
